Earlier results in PMC4681696.

Target: p75NTR (Homo sapiens) (UniProt P08138)
Chain of UniProt P08138 (P08138 29-250): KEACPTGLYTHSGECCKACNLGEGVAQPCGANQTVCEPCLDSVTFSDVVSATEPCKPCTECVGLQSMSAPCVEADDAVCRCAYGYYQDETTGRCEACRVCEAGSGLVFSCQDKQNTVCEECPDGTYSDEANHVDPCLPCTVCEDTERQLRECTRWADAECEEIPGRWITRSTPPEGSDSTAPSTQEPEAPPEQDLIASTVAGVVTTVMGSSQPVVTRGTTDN

- Kd: 7 nM
Substance: NGF (from UniProt P01138)
